Key:
[1] = target: T1, PTPRZ1 expressed on cells (human, UniProt P23471 25-2315); test: cell surface interaction assay: streptavidin-tetramerized biotinylated ECD on transfected cells, immunofluorescence
T1 construct: whole, on cells
From the text: FIG. 3H is a schematic showing the design of the cell surface interaction assay.

PTPRT expressed on cells = target: T2, PTPRT expressed on cells (human, UniProt O14522 26-1441); test: cell surface interaction assay: query ECD tetramerised with fluorescent streptavidin on transfected cells, immunofluorescence
T2 construct: whole, on cells
T2 sequence (looked up): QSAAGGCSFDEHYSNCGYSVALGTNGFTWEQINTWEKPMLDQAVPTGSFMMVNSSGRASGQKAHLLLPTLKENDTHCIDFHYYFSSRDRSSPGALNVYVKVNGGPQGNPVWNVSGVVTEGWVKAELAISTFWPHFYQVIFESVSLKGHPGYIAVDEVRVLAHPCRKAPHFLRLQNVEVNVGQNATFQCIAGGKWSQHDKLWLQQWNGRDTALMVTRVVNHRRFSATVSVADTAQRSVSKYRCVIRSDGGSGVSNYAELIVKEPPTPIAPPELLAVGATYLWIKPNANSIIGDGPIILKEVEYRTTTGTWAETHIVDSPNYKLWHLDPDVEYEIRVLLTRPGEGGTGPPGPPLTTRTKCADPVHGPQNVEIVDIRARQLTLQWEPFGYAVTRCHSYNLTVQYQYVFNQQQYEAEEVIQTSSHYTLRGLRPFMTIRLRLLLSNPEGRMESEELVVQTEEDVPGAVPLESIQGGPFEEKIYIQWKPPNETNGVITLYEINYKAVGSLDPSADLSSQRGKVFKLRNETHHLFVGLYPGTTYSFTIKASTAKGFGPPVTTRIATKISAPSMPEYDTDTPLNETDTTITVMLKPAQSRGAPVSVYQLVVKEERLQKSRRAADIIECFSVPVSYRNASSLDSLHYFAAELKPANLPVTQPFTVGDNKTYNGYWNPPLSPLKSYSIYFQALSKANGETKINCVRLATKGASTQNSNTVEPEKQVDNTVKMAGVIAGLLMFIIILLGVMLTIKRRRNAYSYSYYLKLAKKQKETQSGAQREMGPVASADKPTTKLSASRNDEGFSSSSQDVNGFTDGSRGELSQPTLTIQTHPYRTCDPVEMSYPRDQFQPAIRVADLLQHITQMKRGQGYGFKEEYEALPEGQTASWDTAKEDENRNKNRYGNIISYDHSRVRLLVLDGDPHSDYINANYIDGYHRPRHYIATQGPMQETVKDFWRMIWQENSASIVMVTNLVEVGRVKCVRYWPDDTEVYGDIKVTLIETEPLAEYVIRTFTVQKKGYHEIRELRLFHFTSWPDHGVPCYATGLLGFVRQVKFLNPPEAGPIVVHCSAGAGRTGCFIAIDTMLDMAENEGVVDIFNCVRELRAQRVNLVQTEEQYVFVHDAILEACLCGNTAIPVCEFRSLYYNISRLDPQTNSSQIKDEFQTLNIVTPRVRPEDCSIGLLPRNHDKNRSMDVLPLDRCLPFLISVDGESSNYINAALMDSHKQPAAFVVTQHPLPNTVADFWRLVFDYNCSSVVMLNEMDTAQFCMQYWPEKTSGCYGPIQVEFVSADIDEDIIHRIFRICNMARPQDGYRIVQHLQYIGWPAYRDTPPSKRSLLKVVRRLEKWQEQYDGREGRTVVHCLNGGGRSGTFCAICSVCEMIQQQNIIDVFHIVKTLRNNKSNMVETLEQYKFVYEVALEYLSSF

T1 sequence (P23471 25-2315): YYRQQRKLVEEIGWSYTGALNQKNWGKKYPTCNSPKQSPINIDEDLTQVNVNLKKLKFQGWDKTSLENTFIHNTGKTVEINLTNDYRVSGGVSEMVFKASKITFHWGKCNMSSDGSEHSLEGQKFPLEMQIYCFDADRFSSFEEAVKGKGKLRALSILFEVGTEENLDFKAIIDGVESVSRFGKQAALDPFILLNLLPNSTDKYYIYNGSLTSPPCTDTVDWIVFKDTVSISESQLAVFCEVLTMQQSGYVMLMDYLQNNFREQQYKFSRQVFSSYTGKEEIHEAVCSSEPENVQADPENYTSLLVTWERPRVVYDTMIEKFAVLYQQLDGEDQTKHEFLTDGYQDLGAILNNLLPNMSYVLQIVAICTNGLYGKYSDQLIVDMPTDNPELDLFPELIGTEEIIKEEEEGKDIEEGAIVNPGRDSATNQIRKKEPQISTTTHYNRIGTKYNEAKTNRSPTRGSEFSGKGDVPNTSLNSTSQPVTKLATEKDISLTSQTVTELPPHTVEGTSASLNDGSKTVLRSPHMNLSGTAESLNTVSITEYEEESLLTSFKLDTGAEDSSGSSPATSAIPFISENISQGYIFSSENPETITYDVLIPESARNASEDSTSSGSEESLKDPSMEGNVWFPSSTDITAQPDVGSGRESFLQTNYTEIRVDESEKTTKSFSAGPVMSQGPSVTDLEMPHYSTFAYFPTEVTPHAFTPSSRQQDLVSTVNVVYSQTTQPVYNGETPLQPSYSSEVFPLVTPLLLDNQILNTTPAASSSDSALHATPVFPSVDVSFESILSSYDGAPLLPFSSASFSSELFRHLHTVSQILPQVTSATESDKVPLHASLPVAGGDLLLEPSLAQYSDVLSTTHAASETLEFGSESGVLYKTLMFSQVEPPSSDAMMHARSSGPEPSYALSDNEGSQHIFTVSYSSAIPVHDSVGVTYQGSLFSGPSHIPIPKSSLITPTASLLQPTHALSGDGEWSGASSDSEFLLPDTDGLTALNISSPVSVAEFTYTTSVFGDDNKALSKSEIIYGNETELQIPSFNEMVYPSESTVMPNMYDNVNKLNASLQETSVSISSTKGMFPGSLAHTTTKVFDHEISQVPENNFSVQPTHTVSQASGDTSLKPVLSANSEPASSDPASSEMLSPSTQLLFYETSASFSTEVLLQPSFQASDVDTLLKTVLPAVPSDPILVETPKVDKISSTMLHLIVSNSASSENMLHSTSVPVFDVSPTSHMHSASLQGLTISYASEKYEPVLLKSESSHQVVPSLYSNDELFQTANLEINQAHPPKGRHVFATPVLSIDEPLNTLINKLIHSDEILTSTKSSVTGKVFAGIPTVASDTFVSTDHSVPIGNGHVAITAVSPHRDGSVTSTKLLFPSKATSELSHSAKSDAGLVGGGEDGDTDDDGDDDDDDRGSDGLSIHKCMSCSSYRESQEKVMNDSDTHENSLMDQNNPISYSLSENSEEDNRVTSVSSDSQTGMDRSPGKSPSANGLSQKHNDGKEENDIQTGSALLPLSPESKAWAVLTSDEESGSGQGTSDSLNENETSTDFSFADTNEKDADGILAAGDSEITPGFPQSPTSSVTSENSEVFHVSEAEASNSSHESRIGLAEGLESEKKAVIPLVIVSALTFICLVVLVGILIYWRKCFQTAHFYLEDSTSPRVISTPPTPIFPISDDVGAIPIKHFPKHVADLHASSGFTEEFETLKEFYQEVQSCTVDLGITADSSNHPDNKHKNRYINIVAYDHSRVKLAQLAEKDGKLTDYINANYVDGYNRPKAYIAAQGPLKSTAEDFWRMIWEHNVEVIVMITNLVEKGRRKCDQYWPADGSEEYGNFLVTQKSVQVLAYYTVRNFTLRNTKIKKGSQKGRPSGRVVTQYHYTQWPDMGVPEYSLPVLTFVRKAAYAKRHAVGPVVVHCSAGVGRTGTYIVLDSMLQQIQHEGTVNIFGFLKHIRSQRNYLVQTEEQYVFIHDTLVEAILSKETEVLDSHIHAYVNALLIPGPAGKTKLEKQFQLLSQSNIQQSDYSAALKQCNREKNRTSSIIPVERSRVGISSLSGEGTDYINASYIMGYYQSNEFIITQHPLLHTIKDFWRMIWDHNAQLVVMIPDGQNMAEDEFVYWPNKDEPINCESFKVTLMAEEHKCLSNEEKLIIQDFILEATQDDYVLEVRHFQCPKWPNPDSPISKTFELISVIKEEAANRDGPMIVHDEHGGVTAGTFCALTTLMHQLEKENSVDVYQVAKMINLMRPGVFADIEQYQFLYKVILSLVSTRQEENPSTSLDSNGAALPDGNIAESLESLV

binding result [1]: binds
binding result (PTPRT expressed on cells): no binding
B1: CNTN1 extracellular domain (receptor, human, UniProt Q12860 21-993, looked up)
chain: EFTWYRRYGHGVSEEDKGFGPIFEEQPINTIYPEESLEGKVSLNCRARASPFPVYKWRMNNGDVDLTSDRYSMVGGNLVINNPDKQKDAGIYYCLASNNYGMVRSTEATLSFGYLDPFPPEERPEVRVKEGKGMVLLCDPPYHFPDDLSYRWLLNEFPVFITMDKRRFVSQTNGNLYIANVEASDKGNYSCFVSSPSITKSVFSKFIPLIPIPERTTKPYPADIVVQFKDVYALMGQNVTLECFALGNPVPDIRWRKVLEPMPSTAEISTSGAVLKIFNIQLEDEGIYECEAENIRGKDKHQARIYVQAFPEWVEHINDTEVDIGSDLYWPCVATGKPIPTIRWLKNGYAYHKGELRLYDVTFENAGMYQCIAENTYGAIYANAELKILALAPTFEMNPMKKKILAAKGGRVIIECKPKAAPKPKFSWSKGTEWLVNSSRILIWEDGSLEINNITRNDGGIYTCFAENNRGKANSTGTLVITDPTRIILAPINADITVGENATMQCAASFDPALDLTFVWSFNGYVIDFNKENIHYQRNFMLDSNGELLIRNAQLKHAGRYTCTAQTIVDNSSASADLVVRGPPGPPGGLRIEDIRATSVALTWSRGSDNHSPISKYTIQTKTILSDDWKDAKTDPPIIEGNMEAARAVDLIPWMEYEFRVVATNTLGRGEPSIPSNRIKTDGAAPNVAPSDVGGGGGRNRELTITWAPLSREYHYGNNFGYIVAFKPFDGEEWKKVTVTNPDTGRYVHKDETMSPSTAFQVKVKAFNNKGDGPYSLVAVINSAQDAPSEAPTEVGVKVLSSSEISVHWEHVLEKIVESYQIRYWAAHDKEEAANRVQVTSQEYSARLENLLPDTQYFIEVGACNSAGCGPPSDMIEAFTKKAPPSQPPRIISSVRSGSRYIITWDHVVALSNESTVTGYKVLYRPDGQHDGKLYSTHKHSIEVPIPRDGEYVVEVRAHSDGGDGVVSQVKIS
notes: extracellular domain; Streptavidin tetramer in cell assays; ECD-Fc in SPR; also called contactin 1
